According to patent US20110206668A1:

Molecular target: murine MRC OX-2 (mouse) (UniProt O54901)
Assay: FACS of 10-day cultured mouse bone marrow derived dendritic cells, anti-CD200 and PE anti-mouse IgG

Chain of UniProt O54901 (O54901 31-278 limits assumed): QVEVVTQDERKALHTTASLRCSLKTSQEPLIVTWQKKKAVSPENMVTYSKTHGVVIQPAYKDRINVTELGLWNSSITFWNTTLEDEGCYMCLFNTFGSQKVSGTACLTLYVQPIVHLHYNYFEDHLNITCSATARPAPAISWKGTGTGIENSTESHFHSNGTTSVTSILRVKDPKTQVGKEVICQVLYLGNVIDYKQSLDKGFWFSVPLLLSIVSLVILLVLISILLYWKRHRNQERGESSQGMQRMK

percent stained cells: 14%
Substance: mouse IgG1 anti-rat CD200 (commercial anti-rat MRC OX-2 monoclonal antibody, Cedarlane Labs)
